Biological target: OFA alone (control OFA construct, not fused to a chemoattractant) (murine, UniProt P14206 1-295)
Test: ligand binding-internalization assay on iDC, flow cytometry (data not shown)
Procedure: The ligand binding-internalization assays were performed with iDC or splenocytes (1×10⁵) blocked with mouse serum in PBS containing 2% BSA. Fusion proteins (10-50 μg/ml) were incubated in complete medium for Ih at 37° C. or at 4° C. To detect bound proteins, the cells were incubated with anti-c-myc mAb or isotype-matched, purified mouse IgG1, followed with α-mouse Ig-FITC mAb incubation (Jackson ImmunoResearch Laboratory, Bar Harbor, Me.) for 20 min each, and then fixed with 1% paraformaldehyde. The binding-internalization was assessed via flow cytometry on a FACScan (Becton Dickinson, Franklin Lakes, N.J.) using CellQuest software.

binding result: no binding
B1: CCR6 expressed on murine BM iDC (receptor)
chain: MNSTESYFGTDDYDNTEYYSIPPDHGPCSLEEVRNFTKVFVPIAYSLICVFGLLGNIMVVMTFAFYKKARSMTDVYLLNMAITDILFVLTLPFWAVTHATNTWVFSDALCKLMKGTYAVNFNCGMLLLACISMDRYIAIVQATKSFRVRSRTLTHSKVICVAVWFISIIISSPTFIFNKKYELQDRDVCEPRYRSVSEPITWKLLGMGLELFFGFFTPLLFMVFCYLFIIKTLVQAQNSKRHRAIRVVIAVVLVFLACQIPHNMVLLVTAVNTGKVGRSCSTEKVLAYTRNVAEVLAFLHCCLNPVLYAFIGQKFRNYFMKIMKDVWCMRRKNKMPGFLCARVYSESYISRQTSETVENDNASSFTM
notes: whole, on cells
